Source: the RNAGym collection of RNA variant scans (doi:10.1021/acssynbio.7b00057)

B1: Pistol ribozyme (parent)
chain: GGGUCGUUGUUCCAUAAUCGCGUGGAUAUGGCACGCAAGUUUCUACCGGGCACCGUAAAUGUCCGACUGGAGCCGUUCGGGCGGCUAUAAACAGACCUCAGGCCCGAAGCGUGGCGGCACCUGCCGCCGGUGGUAAAAAAGAUCGGAAGAGCACACGUCU

Variants of: B1
Test: aptazyme ON/OFF ratio, guanine; higher = stronger switching; co-transcriptional cleavage with and without guanine
With GGGUCGCAUAGGGAUAAUCGCGUGGAUAUGGCACGCAAGUUUCUACCGGGCACCGUAAAUGUCCGACUGGAGCCGUUCGGGCGGCUAUAAACAGACCUCAGGCCCGAAGCGUGGCGGCACCUGCCGCCGGUGGUAAAAAAGAUCGGAAGAGCACACGUCU [U7C U8A G9U U10A U11G C12G C13G] the “aptazyme ON/OFF ratio” value was 1.26.
With GGGUCGCAUAGGAAUAAUCGCGUGGAUAUGGCACGCAAGUUUCUACCGGGCACCGUAAAUGUCCGACUGGAGCCGUUCGGGCGGCUAUAAACAGACCUCAGGCCCGAAGCGUGGCGGCACCUGCCGCCGGUGGUAAAAAAGAUCGGAAGAGCACACGUCU [U7C U8A G9U U10A U11G C12G C13A] the “aptazyme ON/OFF ratio” value was 1.15.
For GGGUCGCAUAGGUAUAAUCGCGUGGAUAUGGCACGCAAGUUUCUACCGGGCACCGUAAAUGUCCGACUGGAGCCGUUCGGGCGGCUAUAAACAGACCUCAGGCCCGAAGCGUGGCGGCACCUGCCGCCGGUGGUAAAAAAGAUCGGAAGAGCACACGUCU [U7C U8A G9U U10A U11G C12G C13U], the “aptazyme ON/OFF ratio” value was 1.12.
For GGGUCGCAUAGUGAUAAUCGCGUGGAUAUGGCACGCAAGUUUCUACCGGGCACCGUAAAUGUCCGACUGGAGCCGUUCGGGCGGCUAUAAACAGACCUCAGGCCCGAAGCGUGGCGGCACCUGCCGCCGGUGGUAAAAAAGAUCGGAAGAGCACACGUCU [U7C U8A G9U U10A U11G C12U C13G], the “aptazyme ON/OFF ratio” value was 1.16.
For GGGUCGCAUAGUAAUAAUCGCGUGGAUAUGGCACGCAAGUUUCUACCGGGCACCGUAAAUGUCCGACUGGAGCCGUUCGGGCGGCUAUAAACAGACCUCAGGCCCGAAGCGUGGCGGCACCUGCCGCCGGUGGUAAAAAAGAUCGGAAGAGCACACGUCU [U7C U8A G9U U10A U11G C12U C13A], the “aptazyme ON/OFF ratio” value was 1.16.
With GGGUCGCAUAGUUAUAAUCGCGUGGAUAUGGCACGCAAGUUUCUACCGGGCACCGUAAAUGUCCGACUGGAGCCGUUCGGGCGGCUAUAAACAGACCUCAGGCCCGAAGCGUGGCGGCACCUGCCGCCGGUGGUAAAAAAGAUCGGAAGAGCACACGUCU [U7C U8A G9U U10A U11G C12U C13U] the “aptazyme ON/OFF ratio” value was 1.31.
In the case of GGGUCGCAUAGACAUAAUCGCGUGGAUAUGGCACGCAAGUUUCUACCGGGCACCGUAAAUGUCCGACUGGAGCCGUUCGGGCGGCUAUAAACAGACCUCAGGCCCGAAGCGUGGCGGCACCUGCCGCCGGUGGUAAAAAAGAUCGGAAGAGCACACGUCU [U7C U8A G9U U10A U11G C12A], the “aptazyme ON/OFF ratio” value is reported as 1.08.
With GGGUCGCAUAGGCAUAAUCGCGUGGAUAUGGCACGCAAGUUUCUACCGGGCACCGUAAAUGUCCGACUGGAGCCGUUCGGGCGGCUAUAAACAGACCUCAGGCCCGAAGCGUGGCGGCACCUGCCGCCGGUGGUAAAAAAGAUCGGAAGAGCACACGUCU [U7C U8A G9U U10A U11G C12G] the “aptazyme ON/OFF ratio” value was 1.14.
For GGGUCGCAUAGUCAUAAUCGCGUGGAUAUGGCACGCAAGUUUCUACCGGGCACCGUAAAUGUCCGACUGGAGCCGUUCGGGCGGCUAUAAACAGACCUCAGGCCCGAAGCGUGGCGGCACCUGCCGCCGGUGGUAAAAAAGAUCGGAAGAGCACACGUCU [U7C U8A G9U U10A U11G C12U], the “aptazyme ON/OFF ratio” value was 1.13.
For GGGUCGCAUAGAAAUAAUCGCGUGGAUAUGGCACGCAAGUUUCUACCGGGCACCGUAAAUGUCCGACUGGAGCCGUUCGGGCGGCUAUAAACAGACCUCAGGCCCGAAGCGUGGCGGCACCUGCCGCCGGUGGUAAAAAAGAUCGGAAGAGCACACGUCU [U7C U8A G9U U10A U11G C12A C13A], the “aptazyme ON/OFF ratio” value was 1.09.
For GGGUCGCAUAGAGAUAAUCGCGUGGAUAUGGCACGCAAGUUUCUACCGGGCACCGUAAAUGUCCGACUGGAGCCGUUCGGGCGGCUAUAAACAGACCUCAGGCCCGAAGCGUGGCGGCACCUGCCGCCGGUGGUAAAAAAGAUCGGAAGAGCACACGUCU [U7C U8A G9U U10A U11G C12A C13G], the “aptazyme ON/OFF ratio” value was 1.15.
With GGGUCGCAUAGAUAUAAUCGCGUGGAUAUGGCACGCAAGUUUCUACCGGGCACCGUAAAUGUCCGACUGGAGCCGUUCGGGCGGCUAUAAACAGACCUCAGGCCCGAAGCGUGGCGGCACCUGCCGCCGGUGGUAAAAAAGAUCGGAAGAGCACACGUCU [U7C U8A G9U U10A U11G C12A C13U] the “aptazyme ON/OFF ratio” value was 1.14.
With GGGUCGCAUAGCAAUAAUCGCGUGGAUAUGGCACGCAAGUUUCUACCGGGCACCGUAAAUGUCCGACUGGAGCCGUUCGGGCGGCUAUAAACAGACCUCAGGCCCGAAGCGUGGCGGCACCUGCCGCCGGUGGUAAAAAAGAUCGGAAGAGCACACGUCU [U7C U8A G9U U10A U11G C13A] the “aptazyme ON/OFF ratio” value was 1.16.
In the case of GGGUCGCAUAGCUAUAAUCGCGUGGAUAUGGCACGCAAGUUUCUACCGGGCACCGUAAAUGUCCGACUGGAGCCGUUCGGGCGGCUAUAAACAGACCUCAGGCCCGAAGCGUGGCGGCACCUGCCGCCGGUGGUAAAAAAGAUCGGAAGAGCACACGUCU [U7C U8A G9U U10A U11G C13U], the “aptazyme ON/OFF ratio” value is reported as 1.17.
With GGGUCGCAUAGCGAUAAUCGCGUGGAUAUGGCACGCAAGUUUCUACCGGGCACCGUAAAUGUCCGACUGGAGCCGUUCGGGCGGCUAUAAACAGACCUCAGGCCCGAAGCGUGGCGGCACCUGCCGCCGGUGGUAAAAAAGAUCGGAAGAGCACACGUCU [U7C U8A G9U U10A U11G C13G] the “aptazyme ON/OFF ratio” value was 1.03.
For GGGUCGCAUCUAAAUAAUCGCGUGGAUAUGGCACGCAAGUUUCUACCGGGCACCGUAAAUGUCCGACUGGAGCCGUUCGGGCGGCUAUAAACAGACCUCAGGCCCGAAGCGUGGCGGCACCUGCCGCCGGUGGUAAAAAAGAUCGGAAGAGCACACGUCU [U7C U8A G9U U10C C12A C13A], the “aptazyme ON/OFF ratio” value was 1.13.
With GGGUCGCAUCUCCAUAAUCGCGUGGAUAUGGCACGCAAGUUUCUACCGGGCACCGUAAAUGUCCGACUGGAGCCGUUCGGGCGGCUAUAAACAGACCUCAGGCCCGAAGCGUGGCGGCACCUGCCGCCGGUGGUAAAAAAGAUCGGAAGAGCACACGUCU [U7C U8A G9U U10C] the “aptazyme ON/OFF ratio” value was 3.35.
With GGGUCGCAUCUACAUAAUCGCGUGGAUAUGGCACGCAAGUUUCUACCGGGCACCGUAAAUGUCCGACUGGAGCCGUUCGGGCGGCUAUAAACAGACCUCAGGCCCGAAGCGUGGCGGCACCUGCCGCCGGUGGUAAAAAAGAUCGGAAGAGCACACGUCU [U7C U8A G9U U10C C12A] the “aptazyme ON/OFF ratio” value was 1.14.
